Data taken from the supplement of paper PMC9732359.
± gives the uncertainty stated by the source.

Experiment: protein stability index of a GFP-peptide fusion (yeast GPS) (PSI 1-4); higher = more stable; sorted into four equal gates, so the index is relative within each strain
Procedure, shortened: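 Yeast carrying a pooled library were grown to mid-log phase in leucine-free medium. Each library plasmid expresses Cherry and has a tiled 17-residue yeast protein peptide fused downstream of GFP. Cells were sorted into four equal gates by GFP/Cherry ratio, and plasmids from each gate were PCR-amplified, Illumina-sequenced and assigned to strains by barcode. Summing, across gates, the read frequency times the gate number gave each peptide's protein stability index.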

Sequence | protein stability index (doa10∆) | protein stability index (pdr5∆) | protein stability index (san1∆) | protein stability index (ubr1∆)
SELAGDEELEAEQIDVF [PRP8] | 3.08 ± 0.2 | 3.19 ± 0.2 | 3.07 ± 0.16 | 2.75 ± 0.18
KCLNYRNVNWIERLTKR [ITC1] | 2.91 ± 0.084 | 3.07 ± 0.052 | 2.96 ± 0.05 | 3.09 ± 0.038
KDGLKLVGSWKKDRATG [RPO21] | 3.58 ± 0.2 | – | 3.33 ± 0.15 | –
NSLLSNFNDIPPSVTLQ [YDL088C/ASM4] | 2.63 ± 0.081 | 1.98 ± 0.072 | 2.04 ± 0.11 | 2.72 ± 0.11
QFTRFFLLVPSKQVQVS [ECM29] | 1.27 ± 0.075 | 1.18 ± 0.061 | 1.19 ± 0.11 | 1.21 ± 0.072
DRKDQDDRDHFGKKRLD [RPB2] | 3.27 ± 0.14 | 3.04 ± 0.12 | 3.28 ± 0.13 | 3.39 ± 0.086
DDLIHFTLKQWNRLTIS [COR1] | 1.3 ± 0.052 | 1.34 ± 0.041 | 1.27 ± 0.066 | 1.33 ± 0.043
KGRSYAYFMVGAMGLLS [RIP1] | 2.39 ± 0.11 | 2.82 ± 0.12 | 3.16 ± 0.2 | 2.98 ± 0.074
SAASKKKKNKNKGKKKR [SRP21] | 3.22 ± 0.081 | 3.04 ± 0.1 | 3.11 ± 0.056 | 3.22 ± 0.056
MLLLNDSVENSSNILED [SRB8] | 2.65 ± 0.078 | 2.57 ± 0.078 | 2.58 ± 0.065 | 2.38 ± 0.061
ETVKLPRVSNQSNEDTF [RRI2] | 3.06 ± 0.13 | 3.22 ± 0.14 | 2.94 ± 0.19 | 3.24 ± 0.1
KERIIRAFLIEEQKIVK [RPL34A] | 3.06 ± 0.082 | 2.26 ± 0.087 | 2.04 ± 0.13 | 2.49 ± 0.066
ILDITDEELVSHFVSAV [RPP0] | 2.99 ± 0.12 | 2.88 ± 0.14 | 3.01 ± 0.13 | 3.05 ± 0.071
ADIENSTSGDPSEFHCL [SSN2] | 3.15 ± 0.18 | 3.31 ± 0.26 | 3.21 ± 0.12 | 3.29 ± 0.12
NGDNSTTTNTDQNNATM [SNF12] | 2.4 ± 0.069 | 2.2 ± 0.069 | 2.52 ± 0.097 | 1.99 ± 0.051
KSGIPEFTPADPNLSFE [SSN2] | 2.96 ± 0.091 | 3.04 ± 0.055 | 2.78 ± 0.054 | 3.25 ± 0.062
SLDTSASTINGASIIQV [YML103C/NUP188] | 1.19 ± 0.081 | 1.44 ± 0.086 | 1.29 ± 0.12 | 1.14 ± 0.093
SPAGKYKRQKSSLLYTY [ESC2] | 1.24 ± 0.056 | 1.39 ± 0.067 | 1.17 ± 0.11 | 1.16 ± 0.06
TLENTLKAAFVAIGNTY [RPS2] | 1.86 ± 0.16 | 1.9 ± 0.11 | 1.72 ± 0.14 | 1.94 ± 0.091
SLFQLSKLGKNLQTVHF [GRR1] | 2.2 ± 0.047 | 2.22 ± 0.051 | 1.96 ± 0.06 | 2.43 ± 0.038

Sequence | protein stability index (doa10∆) | protein stability index (pdr5∆) | protein stability index (san1∆) | protein stability index (ubr1∆)
RRTNTPIGRDGKLAKPR [RPB2] | 3.08 ± 0.1 | 3.06 ± 0.078 | 2.76 ± 0.084 | 2.96 ± 0.1
TGNNLYDRNSNNNHKDK [SWI1] | 3.03 ± 0.049 | 3.12 ± 0.051 | 2.89 ± 0.06 | 3.12 ± 0.039
TEHSKVTRFDEKQIEEL [SRB6] | 3.2 ± 0.14 | 3.26 ± 0.086 | 3.11 ± 0.081 | 3.26 ± 0.07
GSNGELFGGRHYLFNTF [SWP82] | – | 2.97 ± 0.29 | – | –
QSRLMSTSYHLNSTLES [MED6] | 2.79 ± 0.072 | 2.79 ± 0.054 | 1.97 ± 0.063 | 2.37 ± 0.062
DSENFSFEKLYEGMKLG [YMR129W/POM152] | 3.5 ± 0.11 | 3.48 ± 0.15 | 3.42 ± 0.098 | 3.29 ± 0.074
HEEDQKTNIIEKAMDYA [RPN12] | 2.52 ± 0.087 | 2.75 ± 0.078 | 2.37 ± 0.084 | 3.02 ± 0.096
IVFDNTDKSNSPIGFTN [SMC2] | 3.1 ± 0.049 | 3.15 ± 0.063 | 3.15 ± 0.052 | 2.96 ± 0.068
MKWSAIPFQTLYRSIES [YJL039C/NUP192] | 1.53 ± 0.046 | 1.91 ± 0.058 | 1.7 ± 0.11 | 1.91 ± 0.031
AGKFELLDRILPKLKAT [SNF2] | 1.18 ± 0.17 | 2.05 ± 0.14 | 1.77 ± 0.19 | 1.95 ± 0.17
MTMQVAVPRDELGRSNY [FAS1] | 2.7 ± 0.085 | 3 ± 0.11 | 2.99 ± 0.047 | 2.99 ± 0.092
VAASIIPFPDHNQSPRN [RPB2] | 2.37 ± 0.09 | 2.21 ± 0.076 | 2.33 ± 0.12 | 2.63 ± 0.078
NGGVGVDVELITSINVE [FAS2] | 2.93 ± 0.051 | 3.18 ± 0.056 | 3.11 ± 0.05 | 3.13 ± 0.05
AAAAPAPVAAAAPAAAA [FAS2] | – | 1.62 ± 0.27 | – | –
DKRIVISIDSWPTTHKY [DIS3] | 1.92 ± 0.065 | 1.52 ± 0.11 | 1.99 ± 0.16 | 2.06 ± 0.087
VNQDKANNASQITPTVP [SNF12] | 3.03 ± 0.083 | 3.19 ± 0.081 | 3.11 ± 0.063 | 3.18 ± 0.054
VIPSYSKWFNLEKIHSI [SWI3] | 1.69 ± 0.045 | 1.6 ± 0.049 | 1.44 ± 0.075 | 1.89 ± 0.038
DSLISGVKQKITIQLTR [BRR2] | 1.44 ± 0.12 | 1.74 ± 0.064 | 2.66 ± 0.083 | 1.63 ± 0.073
DGMYSESKLSLETLFNR [FAS2] | 3.39 ± 0.075 | 3.25 ± 0.09 | 3.32 ± 0.046 | 3.33 ± 0.048
RLRQFNLQPISTPENVP [SMC4] | 1.69 ± 0.081 | 1.76 ± 0.067 | 1.61 ± 0.14 | 1.73 ± 0.052
